Laboratory results published in article PMC5057043.

What was measured:
[1] = biological target: Frizzled-7 (microscale thermophoresis) (UniProt O75084); assay: MST
[2] = biological target: Frizzled-10 (microscale thermophoresis) (UniProt Q9ULW2); assay: MST
Chain of Frizzled-10 (microscale thermophoresis) (Q9ULW2 21-581): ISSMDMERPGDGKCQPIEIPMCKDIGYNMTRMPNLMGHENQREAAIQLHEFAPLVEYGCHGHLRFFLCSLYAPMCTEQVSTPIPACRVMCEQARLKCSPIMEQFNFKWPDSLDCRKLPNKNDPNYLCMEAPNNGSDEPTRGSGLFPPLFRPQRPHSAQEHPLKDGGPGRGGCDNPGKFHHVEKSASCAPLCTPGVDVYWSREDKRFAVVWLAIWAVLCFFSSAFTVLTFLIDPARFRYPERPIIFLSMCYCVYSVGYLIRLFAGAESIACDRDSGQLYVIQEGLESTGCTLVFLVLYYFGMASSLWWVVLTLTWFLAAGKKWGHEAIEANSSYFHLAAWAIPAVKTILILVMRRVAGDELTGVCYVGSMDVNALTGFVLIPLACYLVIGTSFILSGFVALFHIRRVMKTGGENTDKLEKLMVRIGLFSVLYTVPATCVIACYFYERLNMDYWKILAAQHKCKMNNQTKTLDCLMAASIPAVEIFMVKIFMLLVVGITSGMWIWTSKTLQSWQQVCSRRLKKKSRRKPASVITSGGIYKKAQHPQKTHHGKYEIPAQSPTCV

Chain of Human OLFM4 protein (Q6UX06 21-510): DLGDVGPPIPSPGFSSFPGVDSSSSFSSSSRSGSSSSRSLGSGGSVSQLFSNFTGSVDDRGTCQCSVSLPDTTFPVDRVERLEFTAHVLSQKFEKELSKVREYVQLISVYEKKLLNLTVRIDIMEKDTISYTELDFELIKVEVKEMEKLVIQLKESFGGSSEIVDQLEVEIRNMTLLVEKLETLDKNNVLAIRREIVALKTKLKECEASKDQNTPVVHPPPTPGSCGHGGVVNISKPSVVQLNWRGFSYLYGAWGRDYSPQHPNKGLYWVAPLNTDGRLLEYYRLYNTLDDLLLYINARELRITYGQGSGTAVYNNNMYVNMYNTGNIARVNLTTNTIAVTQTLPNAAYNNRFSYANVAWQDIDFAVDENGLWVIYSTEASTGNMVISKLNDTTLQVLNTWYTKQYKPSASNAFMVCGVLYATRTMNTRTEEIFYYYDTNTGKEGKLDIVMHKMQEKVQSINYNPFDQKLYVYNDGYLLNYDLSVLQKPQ

Question: Which Kd [1] does the source give for “Human OLFM4 protein (from UniProt Q6UX06 21-510) (natural protein)” here?
Answer: The Kd was 2.5 µM.

Question: And the Kd [2]?
Answer: The Kd was 10 µM.
